# Experimental data published in patent US20200199244A1 (published 2020).
# “And” between values parts separate entries of the source, which are not always exact repeats. Equal entries are not always repeated.
# T1: wild type cynomolgus monkey CD40 Fc fusion (cynomolgus monkey (Macaca …))
# T1 construct: also called wt-cCD40; wt-cyno-CD40; not shown: human IgG1 Fc
# T1 chain: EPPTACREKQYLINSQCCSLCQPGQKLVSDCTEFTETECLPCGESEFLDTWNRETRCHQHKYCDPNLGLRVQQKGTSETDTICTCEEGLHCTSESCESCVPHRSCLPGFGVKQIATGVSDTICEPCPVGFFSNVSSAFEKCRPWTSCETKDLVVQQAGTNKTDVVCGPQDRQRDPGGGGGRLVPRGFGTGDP
# T2: human CD40 (H76R, W109L, L121P) Fc fusion (human)
# T2 construct: Same construct as wt-hCD40 with H76R, W109L and L121P; also called hCD40-M5; hCD40-M5 (H76R, W109L, L121P); not shown: human IgG1 Fc
# T2 chain: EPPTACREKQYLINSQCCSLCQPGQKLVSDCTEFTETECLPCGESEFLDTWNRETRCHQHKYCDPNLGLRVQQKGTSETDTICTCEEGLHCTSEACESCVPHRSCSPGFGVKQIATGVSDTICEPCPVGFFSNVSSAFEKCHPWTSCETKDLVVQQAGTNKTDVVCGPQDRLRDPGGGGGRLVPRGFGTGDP
# T3: wild type cynomolgus monkey CD40 Fc fusion (cynomolgus monkey (Macaca …))
# T3 construct: also called wt-cyno-CD40; wt-cCD40; not shown: human IgG1 Fc
# T3 chain: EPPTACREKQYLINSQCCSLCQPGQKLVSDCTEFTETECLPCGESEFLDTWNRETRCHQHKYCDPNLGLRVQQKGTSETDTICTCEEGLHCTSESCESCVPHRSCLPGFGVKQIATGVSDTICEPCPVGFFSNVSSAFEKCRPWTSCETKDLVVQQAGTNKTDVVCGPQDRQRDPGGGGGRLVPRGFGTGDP
# T4: human CD40 (H76R, W109L, L121P) Fc fusion (human)
# T4 construct: Made by site-directed mutagenesis of the wild type construct; no cleavage site is stated; also called hCD40-M5; hCD40-M5 (H76R, W109L, L121P); not shown: human IgG1 Fc
# T4 chain: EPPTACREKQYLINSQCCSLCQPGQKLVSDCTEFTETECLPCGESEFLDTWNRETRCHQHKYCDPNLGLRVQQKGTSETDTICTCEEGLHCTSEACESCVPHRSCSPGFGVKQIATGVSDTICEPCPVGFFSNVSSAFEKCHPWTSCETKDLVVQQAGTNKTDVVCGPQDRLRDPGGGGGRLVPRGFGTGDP
# Columns and labels:
# [1] = target: T5, human CD40 expressed on stably transfected CHO-DG44 cells (human, UniProt P25942 21-277); assay: CHO-CD40 cell RBA, competition with IZ-CD40L
# T5 construct: also called CHO-CD40
# [2] = target: T6, human CD40 (BMS, CY24FEB06-01) (human, UniProt P25942 21-193); assay: bead RBA, competition with IZ-CD40L
# T6 construct: Soluble reagent of the bead and ELISA RBA; It is detected with an anti-human IgG (Fc) mAb, so it may be a CD40-Ig fusion
# [3] = target: T1, wild type cynomolgus monkey CD40 Fc …; assay: SPR, ProteOn XPR36; CD40-Fc captured, dAb analyte
# [4] = target: T7, human CD40 (W109R) Fc fusion (Chimpanzee CD40) (human, UniProt P25942 21-193); assay: SPR, ProteOn XPR36; CD40-Fc captured, dAb analyte
# T7 construct: Same construct as wt-hCD40 with W109R (the residue of chimpanzee CD40); also called hCD40-M3; hCD40 M3 (W109R); not shown: human IgG1 Fc
# [5] = target: T2, human CD40 (H76R, W109L, L121P) Fc …; assay: SPR, ProteOn XPR36; CD40-Fc captured, dAb analyte
# [6] = target: T8, human CD40 (W109L, L121P) Fc fusion (human, UniProt P25942 21-193); assay: SPR, ProteOn XPR36; CD40-Fc captured, dAb analyte
# T8 construct: Same construct as wt-hCD40 with W109L and L121P; also called hCD40-M4; hCD40 M4 (W109L, L121P); not shown: human IgG1 Fc
# [7] = target: T9, wild type human CD40 Fc fusion (human, UniProt P25942 21-193); assay: SPR, ProteOn XPR36; CD40-Fc captured, dAb analyte; 1:1 fit; repeat
# T9 construct: also called wt-hCD40; not shown: human IgG1 Fc
# [8] = target: T9, wild type human CD40 Fc fusion; assay: SPR, ProteOn XPR36; CD40-Fc captured, dAb analyte; 1:1 fit;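 for Kd: CD40-Fc captured on anti-human IgG(Fc) surface of a GLC chip, buffer pH 7.1, sensorgrams double-referenced against surfaces without CD40-Fc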;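 for koff: CD40-Fc captured on anti-human IgG(Fc) surface of a GLC chip, buffer pH 7.1, sensorgrams double-referenced against surfaces without CD40-Fc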;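 for kon: CD40-Fc captured on anti-human IgG(Fc) surface of a GLC chip, buffer pH 7.1, sensorgrams double-referenced against surfaces without CD40-Fc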
# Experimental: (§1) Assays were performed on a BioRad ProteOn XPR36 SPR instrument. The SPR surfaces were prepared by immobilizing 8 μg/ml anti-human IgG(Fc) antibody (Biacore/GE Healthcare) in 10 mM sodium acetate pH 4.5 on a BioRad GLC sensor chip using standard ethyl(dimethylaminopropyl) carbodiimide (EDC)/N-hydroxysuccinimide (NHS) chemistry, with ethanolamine blocking. The running buffer for immobilization and kinetic binding analysis was 10 mM sodium phosphate, 130 mM sodium chloride, 0.05% tween 20, pH 7.1. CD40-Fc fusion proteins at concentrations of 20 μg/ml were captured in the vertical orientation on these surfaces via the Fc tail, and reference surfaces lacking CD40-Fc proteins were used for reference subtraction. […] The surfaces were regenerated in both horizontal and vertical orientations with 30 s pulses of 3 M MgCl₂ followed by running buffer at 60 μl/min. Sensogram data was double-referenced and then fitted to a 1:1 Langmuir model using BioRad ProteOn Manager V.2.1.0.38 software, to determine the association rate constant (ka), the dissociation rate constant (kd), and the equilibrium dissociation constant (KD).
# [9] = target: T10, human CD40 (H76R) Fc fusion (human, UniProt P25942 21-193); assay: as above
# T10 construct: also called hCD40-M1; hCD40 M1 (H76R); not shown: human IgG1 Fc
# [10] = target: T6, human CD40 (BMS, CY24FEB06-01); assay: ELISA RBA, competition with IZ-CD40L
# Experimental: Clear walled High Bind, 384-well plates (Corning, UK) were coated with 25 μl of 1 μg/ml Neutravidin in 0.2 M carbonate-bicarbonate buffer, pH 9.4 overnight at 4° C. The following day, assay plates were washed with 0.1% (v/v) Tween PBS buffer, blocked with 1% (w/v) BSA in PBS for 1 hour at room temperature and washed again. […] Following washing of the assay plate, the dAb:human CD40 complex was incubated in the assay plate at room temperature for 2 hours with gentle agitation. […] Absorbance signal was measured using a SpectraMax® M5e plate reader (Molecular Devices) at 450 nm following neutralization with 1M HCl solution.
# [11] = target: T3, wild type cynomolgus monkey CD40 Fc …; assay: SPR (ProteOn XPR36), CD40-Fc captured via anti-human IgG(Fc), dAb as analyte, 25 C
# Experimental: as §1
# [12] = target: T11, human CD40 (W109L, L121P) Fc fusion (human, UniProt P25942 21-193); assay: as above
# T11 construct: Made by site-directed mutagenesis of the wild type construct; no cleavage site is stated; also called hCD40-M4; hCD40 M4 (W109L, L121P); not shown: human IgG1 Fc
# [13] = target: T4, human CD40 (H76R, W109L, L121P) Fc …; assay: as above
# Experimental: as §1
binder,measurement,setting,value
"BMS3h-198 (other, dAb, single VH) VH: EVQLLESGGGLVQPGGSLRLSCAASGFTFAGYEMWWVRQAPGKGLERVSAISGSGGSTYYADSVKGRFTISRDDSKNTLYLQMNSLRAEDTAVYYCAKDPYSFDYWGQGTLVTVSS",EC50,[1],600 nM
same,EC50,[2],80 nM
"BMS3h-38-215 (other, Anti-human CD40 domain antibody (dAb), single VH domain) VH: EVQLLASGGGLVQPGGSLRLSCAASGFTFEEEEMIWVRQAPGKGLEWVSAISGLGWSTYYADSVKGRFTISRDNSKNTLYLQMNSLRAEDTAVYYCGKEPFRYDYWGQGTLVTVSS",binding result,[3],no binding (tested: dAb tested up to 405 nM)
same,binding result,[4],no binding (tested: dAb tested up to 405 nM)
same,binding result,[5],no binding (tested: dAb tested up to 405 nM)
same,binding result,[6],no binding (tested: dAb tested up to 405 nM)
same,Kd,[7],6.02 nM
same,koff,[7],0.00082 s⁻¹
same,kon,[7],136000 M⁻¹ s⁻¹
same,Kd,[8],2.1 nM
same,koff,[8],0.000288 s⁻¹
same,kon,[8],137000 M⁻¹ s⁻¹
same,Kd,[9],3.03 nM
same,koff,[9],0.00053 s⁻¹
same,kon,[9],175000 M⁻¹ s⁻¹
"BMS3h-38-217 (other, Anti-human CD40 domain antibody (dAb), single VH domain) VH: EVQLLASGGGLVQPGGSLRLSCAASGFTFEEEEMIWVRQAPGKGLEWVSAISRRGYSTYYADSVKGRFTISRDNSKNTLYLQMNSLRAEDTAVYYCGKEPFRYDYWGQGTLVTVSS",binding result,[3],no binding (tested: dAb tested up to 405 nM)
same,binding result,[4],no binding (tested: dAb tested up to 405 nM)
same,binding result,[5],no binding (tested: dAb tested up to 405 nM)
same,binding result,[6],no binding (tested: dAb tested up to 405 nM)
same,Kd,[7],2.37 nM
same,koff,[7],0.00034 s⁻¹
same,kon,[7],144000 M⁻¹ s⁻¹
same,Kd,[8],2.34 nM
same,koff,[8],0.000296 s⁻¹
same,kon,[8],127000 M⁻¹ s⁻¹
same,Kd,[9],3.41 nM
same,koff,[9],0.000481 s⁻¹
same,kon,[9],141000 M⁻¹ s⁻¹
"BMS3h-231 (other, dAb, single VH) VH: EVQLLESGGGLVQPGGSLRLSCAASGFTFSAYNMWWARQAPGKGLEWVSWINSTGSRTYYADSVKGRFTISRDNSKNTLYLQMNSLRAEDTAVYYCAKNWHRGRFDYWGQGTLVTVSS",EC50,[10],670 nM and 870 nM
"BMS3h-257 (other, dAb, single VH) VH: EVQLLESGGGLVQPGGSLRLSCAASGFTFQNYQMAWVRQAPGKGLEWVSTISGTGKNTYYADSVKGRFTISRDNSKNTLYLQMNSLRAEDTAVYYCAKTPQNYFSVRRFDYWGQGTLVTVSS",EC50,[10],3210 nM and 1340 nM
"BMS3h-56-2 (other, Anti-human CD40 domain antibody (dAb), a single human VH domain) VH: EVQLLESGGGLVQPGGSLRLSCAASGFTFRDYEMWWVRQAPGKGLERVSAINPQGTRTYYADSVKGRFTISRDNSKNTLYLQMNSLRAEDTAVYYCAKLPFTFDDWGQGTLVTVSS",binding result,[11],no binding (tested: 405 nM (highest dAb concentration))
"BMS3h-56-5 (other, Anti-human CD40 domain antibody (dAb), a single human VH domain) VH: EVQLLESGGGLVQPGGSLRLSCAASGFTFRDYEMWWVRQAPGKGLERVSAINPQGTRTYYADSVMGRFTISRDNSKNTLYLQMNSLRAEDTAVYYCAKLPFTFDDWGQGTLVTVSS",binding result,[12],no binding (tested: 405 nM (highest dAb concentration))
same,binding result,[13],no binding (tested: 405 nM (highest dAb concentration))
same,binding result,[11],no binding (tested: 405 nM (highest dAb concentration))
"BMS3h-56-217 (other, Anti-human CD40 domain antibody (dAb), a single human VH domain) VH: EVQLLESGGGLVQPGGSLRLSCAASGFTFRDYEMWWVRQAPGKGLERVSAINPWGSLTYYADSVKGRFTISRDNSKNTLYLQMNSLRAEDTAVYYCAKLPFTFEDWGQGTLVTVSS",binding result,[12],no binding (tested: 405 nM (highest dAb concentration))
same,binding result,[13],no binding (tested: 405 nM (highest dAb concentration))
same,binding result,[11],no binding (tested: 405 nM (highest dAb concentration))
"BMS3h-56-206 (other, Anti-human CD40 domain antibody (dAb), a single human VH domain) VH: EVQLLESGGGLVQPGGSLRLSCAASGFTFRDYEMWWVRQAPGKGLERVSAINPQGTRTYYADSVKGRFTISRDNSKNTLYLQMNSLRAEDTAVYHCAKLPMFFEDWGQGTLVTVSN",binding result,[12],no binding (tested: 405 nM (highest dAb concentration))
same,binding result,[13],no binding (tested: 405 nM (highest dAb concentration))
same,binding result,[11],no binding (tested: 405 nM (highest dAb concentration))
"BMS3h-56-202 (other, Anti-human CD40 domain antibody (dAb), a single human VH domain) VH: EVQLLESGGGLVQPGGSLRLSCAASGFTFRDYEMWWVRQAPGKGLERVSAINPQGTRTYYADSVKGRFTISRDNSKNTLYLQMNSLRAEDTAVYYCAKLPTYFSDRGQGTLVTVSS",binding result,[12],no binding (tested: 405 nM (highest dAb concentration))
same,binding result,[13],no binding (tested: 405 nM (highest dAb concentration))
same,binding result,[11],no binding (tested: 405 nM (highest dAb concentration))
"BMS3h-287 (other, dAb, single VH) VH: EVQLLESGGGLVQPGGSLRLSCAASGFTFTNYRMSWVRQAPGKGLEWVSAIDDLGVSTYYADSVKGRFTISRDNSKNTLYLQMNSLRAEDTAVYYCAKWRLKNSQPTDFDYWGQGTLVTVSS",EC50,[10],> 10000 nM and 6760 nM
"BMS3h-217 (other, dAb, single VK) VL: DIQMTQSPSSLSASVGDRVTITCRASHFIGTLLSWYQQKPGKAPKLLITYGSLLQSGVPSRFSGSGSGTDFTLTISSLQPEDFATYYCGQGVLWPATFGQGTKVEIKR",EC50,[1],1400 nM
same,EC50,[2],800 nM
"BMS3h-233 (other, dAb, single VH) VH: EVQLLESGGGLVQPGGSLRLSCAASGFTFAHYNMRWVRQAPGKGLEWVSTITKTGFRTYYADSVKGRFTISRDNSKNTLYLQMNSLRAEDTAVYYCAKAGQFDFDYWGQGTLVTVSS",EC50,[10],2770 nM
"BMS3h-43 (other, dAb, single VH) VH: EVQLLESGGGLVQPGGSLRLSCTASGFTFNMYEMSWVRQAPGKGLEWVSGISRRGFTTYYADSVKGRFTISRDNSKNTLYLQMNSLRAEDTAVYYCAKEPITYAMRYARFDYWGQGTLVTVSS",EC50,[1],5000 nM
same,EC50,[2],100 nM and 50 nM
